This data set in a line: soluble on expression in E. coli; label from the status in PepcDB or PDB records.
Consider “MSAKMDEQALLALLRELAIDSQRVEHPAIASIEEYYAQGIELPDQGIKNLFLRNRKGTRHYLVLLDERKEADLPGIAEQIGESRLSFASVERLREYLGVELGCVTPFALVNDPQHRVEVLLDDAIRQDQLLGFHPLVNTATECIRYADLLAFLAHTGHEPRLIRA”, for which the “soluble on expression in E. coli” value is “not soluble”.

With “MSALDPQASARVARTPDAEPEAVDASAAGESAGLIARLGRLFERDRLPPPADLAQLFEARLTDVRANKLAQAWRLAYEQADGKRRRAMLGGLAQVGAGMQGDGAQGTRLFKRFNALPDGLRFLVALRADMLRWRKQVAGLQALDKELEALLSAWFDVGLLELRPLTWDSPASLLEKLILYEAVHEIRSWDDLRHRVAGDRRCYAYFHPQMPDVPLIFVEVAFSAQMADNVQALLDTSAPPQDLDKARWAIFYSISNTQPGLRGISFGNFLLKRVIDRLLQELPKLKFFATLSPIPGFADWLSRLDAQEVEQAVRDKARTRSGAPDGARWVARLARAATGKPSEVVQRAGLRLAARYLQAMRAGQPLDPVARFHLGNGARIERLNWAADTSAKGLAQSCGMMVNYLYELGDLDGNLARLNEGKPQVSRGIARLGLEHHHHHH”, the “soluble on expression in E. coli” value is “not soluble”.

“MSALYRRFRPLTFQEVVGQEHVKEPLLKAIREGRLAQAYLFSGPRGVGKTTTARLLAMAVGCQGEDPPCGVCPHCQAVQRGAHPDVVEIDAASNNSVEDVRELRERIHLAPLSAPRKVFILDEAHMLSKSAFNALLKTLEEPPPHVLFVFATTEPERMPPTILSRTQHFRFRRLTEEEIAFKLRRILEAVGREAEEEALLLLARLADGALRDAESLLERFLLLEGPLTRKEVERALGLPPREALAEIAASLARGKTAEALGLARRLYGEGYAPRSLVSGLLEVFREGLYAAFGLAGTPLPAPPQALIAAMTALDEAMERLARRSDALSLEVALLEAGRALAAEALPQPTGAPSPEVGPKPESPPAPEPPRPEEAPDLRERWRAFLEALRPTLRAFVREARPEVREGQLCLAFPEDKAFHYRKASEQKARLLPLAQAHFGVEEVVLVLEGEKKSLSPRPRPAPPPEAPAPPGPPEEEVEAEEAAEEAPEEALRRVVRLLGGRVLWVRRPRTREAPEEEPLSQDEIGGTGI”: the “soluble on expression in E. coli” value is “soluble”.

Consider “MSAQAAKVSKKELNSNHDGADETSEKEQQEAIEHIDEVQNEIDRLNEQASEEILKVEQKYNKLRQPFFQKRSELIAKIPNFWVTTFVNHPQVSALLGEEDEEAMHYLTRVEVTEFEDIKSGYRIDFYFDENPYFENKVLSKEFHMNESGDPSSKSTEIKWKSGKDMTKRSSQTQNKASRKRQHEEPESFFTWFTDHSDAGADELGEVIKDDIWPNPLQYYLVPDM”, for which the “soluble on expression in E. coli” value was “soluble”.

Take “MSATETITTNARVLGADPLVKDGFGEEDMLTLVLPYIKTAREGVLRLGELLETYGTYESNGIAFADTEEIWWLKTIGGHNWIARRVPDDAYVTNPNQLGIDHYEFENPDDYLASPDIRDFINKHHLDLTYSNEHFNPRYAFGSQRDKDHHYNTPRARAM”: the “soluble on expression in E. coli” value was “soluble”.

As for “MSAVSNGNPSIVSPRGEHKGTLIFLHGLGDQGHGWADAFKTEAKHDNIKFICPHSSERPVTLNMGMRMPAWFDLFGLDPNAQEDEQGINRATQYVHQLIDAEVAAGIPASRIAVGGFSMGGALAIYAGLTYPQKLGGIVGLSSFFLQRTKFPGSFTANNATPIFLGHGTDDFLVPLQFGQMSEQYIKKFNPKVELHTYRGMQHSSCGEEMRDVKTFLSAHIAH”, the “soluble on expression in E. coli” value was “not soluble”.

On to “MSCCFSKKLFGRRSKREDRYKVSEDAVPKPEEGGEPPKYSWDRREKVNAEDFTIANIHNTTLKKESKDGGPLQMENCTDSTILYLYQTSQVIIDDCRHCTIVLGPAAGSVFVRDCANCTIFTSCQQLRTRDCTSIRISILCPTEPIVENSSDIHFFHLAMRYPELKDQMHAVGLRPFTNRIASVHDFTPAGVNGKGNFRVTPEVVQISDGQEEILRAKGVILKPSPADFIPRFTDTTDPDPTFLYVLGKSEPVDELGDRAIELLHAIYKSGMQVMGTCDLETSTVDSKLVPFAGQAERMILFQLKGNLANLECDVEFDVMSENDLVPLRNLLIHLEGKKNG”, for which the “soluble on expression in E. coli” value is reported as “not soluble”.

In the case of “MSCNSFFVFCANSKKEKKDKILEITPQGTTPLPCSRQSRMRDENGSTRTRGGSRGIKSSKEPDSTDDAFKEMAKRLAKKDKPEKTLDFI”, the “soluble on expression in E. coli” value is on record as “soluble”.

Consider “MSCVHYKFSSKLNYDTVTFDGLHISLCDLKKQIMGREKLKAADCDLQITNAQTKEEYTDDNALIPKNSSVIVRRIPIGGVKSTSKTYVISRTEPAMATTKAIDDSSASISLAQLTKTANLAEANASEEDKIKAMMSQSGHEYDPINYMKKPLGPPPPSYTCFRCGKPGHYIKNCPTNGDKNFESGPRIKKSTGIPRSFMMEVKDPNMKGAMLTNTGKYAIPTIDAGRLLFHKLGTMGHKQIDTYFWNRGDVYGATATQITHLREAYAIGKKEKPPFLPEEPSSSSEEDDPIPDELLCLICKDIMTDAVVIPCCGNSYCDECIRTALLESDEHTCPTCHQNDVSPDALIANKFLRQAVNNFKNETGYTKRLRKQLPPPPPPIPPPRPLIQRNLQPLMRSPISRQQDPLMIPVTSSSTHPAPSISSLTSNQSSLAPPVSGNPSSAPAPVPDITATVSISVHSEKSDGPFRDSDNKILPAAALASEHSKGTSSIAITALMEEKGYQVPVLGTPSLLGQSLLHGQLIPTTGPVRINTARPGGGRPGWEHSNKLGYLVSPPQQIRRGERSCYRSINRGRHHSERSQRTQGPSLPATPVFVPVPPPPLYPPPPHTLPLPPGVPPPQFSPQFPPGQPPPAGYSVPPPGFPPAPANLSTPWVSSGVQTAHSNTIPTTQAPPLSREEFYREQRRLKEEEKKKSKLDEFTNDFAKELMEYKKIQKERRRSFSRSKSPYSGSSYSRSSYTYSKSRSGSTRSRSYSRSFSRSHSRSYSRSPPYPRRGRGKSRNYRSRSRSHGYHRSRSRSPPYRRYHSRSRSPQAFRGQSPNKRNVPQGETEREYFNRYREVPPPYDMKAYYGRSVDFRDPFEKERYREWERKYREWYEKYYKGYAAGAQPRPSANRENFSPERFLPLNIRNSPFTRGRREDYVGGQSHRSRNIGSNYPEKLSARDGHNQKDNTKSKEKESENAPGDGKGNKHKKHRKRRKGEESEGFLNPELLETSRKSREPTGVEENKTDSLFVLPSRDDATPVRDEPMDAESITFKSVSEKDKRERDKPKAKGDKTKRKNDGSAVSKKENIVKPAKGPQEKVDGERERSPRSEPPIKKAKEETPKTDNTKSSSSSQKDEKITGTPRKAHSKSAKEHQETKPVKEEKVKKDYSKDVKSEKLTTKEEKAKKPNEKNKPLDNKGEKKKKK”, for which the “soluble on expression in E. coli” value is “soluble”.

Regarding “MSCVQQQRRSTGLRIAERLNKYITLPNRHSFTVDSKDVFQRGQVLSYIRSKAPFLLEHISEAKERLITVTSRGLMIIYENDDHGLVIDLRSARNVLCTADRSKKQRHFRCHIKIRMQRGNVHLFVGHNDVHKWTCAIMRAAGKCLPSTEPRDDGSLNVAMMTAVEDSGIFEEMSSTSSASYDYDEDDEVDEVKPTAIEQIPLPHVSVRSLRQKLEKELVLKPKEQVLAEQQHKANCDEPSFVSEIFCTPRAVFSDETVVLLEPTNARERREYEAQADRENQWWTRSLRC”, the “soluble on expression in E. coli” value is reported as “not soluble”.

As for “MSDDEIGDGARAFNQLIQALSLSIETETAVRTFTEMLVSELDVHQLTEQALALLLQHTGADGGAILIEVDGEIRVAASQGIGSAHTLANNDRVRSALRTERRHRVQLPEDLVVDGMLAQFRPKEVIIDPVRHKEVVLGAVVLASGQGFSAEDRNRLDVFERGLALALHNALLYDRLQTLAALDPLTGALEHHHHHH”, the “soluble on expression in E. coli” value was “soluble”.

On to “MSDELSVKRHKSDPDESIEEIMPEIRPPLTRTHKIVRDESGKHNLLLILTGSIAVMKAPELISELYEKIGRDRILIKVVTTENAMKLCHIQKLEFDEIVYEDRDEWSMWRERGDKVLHIELRKWADSALIAPLDANTMAKIANGLCDNLVTSIIRAWDLSKPCYFAPAMNTHMWENPLTMQHRTVLKSQLKFKEICPIQKELICGDVGTGAMASIGTIVSLVAALVRDQQAVRIQCG”, for which the “soluble on expression in E. coli” value is “not soluble”.

As to “MSDHPGPGAVTPELFGVGGDWLAVTAGESGASVFRAADATRYAKCVPAADAAGLEAERDRIAWLSGQGVPGPRVLDWYAGDAGACLVTRAVPGVPADRVGADDLRTAWGAVADAVRRLHEVPVASCPFRRGLDSVVDAARDVVARGAVHPEFLPVEQRLVPPAELLARLTGELARRRDQEAADTVVCHGDLCLPNIVLHPETLEVSGFIDLGRLGAADRHADLALLLANARETWVDEERARFADAAFAERYGIAPDPERLRFYLHLDPLTWG”, the “soluble on expression in E. coli” value was “not soluble”.

For “MSDILLGKLATEFKTVKAMVEVYCHDHHGTKDALCSECRELLEYAEVRLDRCPYGEEKPTCNKCPIHCYKPEPKEQMRLVMRYSGPRMLLKHPILAVRHLLHEKREVPEKPAANASNRHKRINAERDT”, the “soluble on expression in E. coli” value was “not soluble”.

Turning to “MSDITLREAQKSVDQWIKTLGIRYFNELTNMAILTEEVGEVARIIARRYGEQSEKESDKSKDLADEMADVLWVLLCLANQTGVDLTTAFHKNIEKKTVRDKERHQQNTKLHNNGSK”, the “soluble on expression in E. coli” value is “soluble”.

Take “MSDLSAQLSAFKNKIKSGPSVIVPRKATFTQSPSSPLSSSTTTTTSKNDANVKKRSTTDSVTRVLKKQKANMGEMTGSHLSTQLHLAVEYIKEHDQPISVEKLQNYLSFDISHTLLPLLNEIDRVKYDESKGTLEYVSLHNIRSSDDLLEFLRRQTTFKGTSVKELKDGWAGCVAAIDELESQGKILVLRNKKENAPRLVWANNGGELGYIDTEFKDMWDQVKLPEPDVLYQKLLDQGLKPTGADPNLIKKQPQQKEKKQKKARRGKITNTHMKGILKDYSQLV”: the “soluble on expression in E. coli” value is on record as “soluble”.

On to “MSDMTDMLEDEMIDPVTGEIIDQKDLAERLLAQAKEQGVSLVGPGGLLNQLTKNVLETALNAELTEYLGHEHGETPLGSNMRNGPRTKTVLTVESGRFRSRSRGTVTGRSSR”, for which the “soluble on expression in E. coli” value is “not soluble”.

In the case of “MSDNNDRMYELEYPSPEVSGQTAGGPTLIVALQGYADAGHAVESSSSHLMDALDHRLIASFNNDELIDYRSRRPVVVIEHNEVTSMDELNLGLHVVRDNDNKPFLMLSGPEPDLRWGDFSNAVVDLVEKFGVENTICLYAAPMTVPHTRPTVVTAHGNSTDRLKDQVSLDTRMTVPGSASLMLEKLLKDKGKNVSGYTVHVPHYVSASPYPAATLKLLQSIADSADLNLPLLALERDAEKVHRQLMEQTEESSEIQRVVGALEQQYDSE”, the “soluble on expression in E. coli” value is reported as “not soluble”.

Turning to “MSDNNDRMYELEYPSPEVSGQTAGGPTLIVALQGYADAGHAVESSSSHLMDALDHRLIASFNNDELIDYRSRRPVVVIEHNEVTSMDELNLGLHVVRDNDNKPFLMLSGPEPDLRWGDFSNAVVDLVEKFGVENTICLYAAPMTVPHTRPTVVTAHGNSTDRLKDQVSLDTRMTVPGSASLMLEKLLKDKGKNVSGYTVHVPHYVSASPYPAATLKLLQSIADSADLNLPLLALERDAEKVHRQLMEQTEESSEIQRVVGALEQQYDSELERYRNRHPQAVMPGESELPSGDEIGAEFEKFLADLDDQGGSDHKETPEA”, the “soluble on expression in E. coli” value is recorded as “soluble”.

Consider “MSDQMRIPCVIMRAGTSKGIFLKGNDLPADQELRDKVILRIFGSPDVRQIDGLAGADPLTSKLAIIGPSTHPDADVDYTFAQVSITDAVVDYNGNCGNISAGVGPFAIDESFVKAVEPMTRVCIHNTNTGKLLYAEVEVEDGKAKVSGDCKIDGVPGTNAPELMDFSDTAGAATGKVLPTGNVVDVLSTSKGDIDVSIVDVANPCIFVHAKDVNMTGTETPDVINGNADLLAYLEEIRAKCCVKIGMAATEKEASEKSPAFPMIAFVTKPEDYVDFSTGNTISGDDVDLVSRLMFMQVLHKTYAGTATACTGSAARIPGTIVNQVLRDTGDEDTVRIGHPAGVIPVVSIVKDGKVEKAALIRTARRIMEGYVYVEKAKLVGSAWSHPQFEK”, for which the “soluble on expression in E. coli” value is recorded as “soluble”.

(Values after the DeepSol protein solubility set.)
